# Assay results taken from US5583112A, “Saponin-antigen conjugates and the use thereof” (priority 1992, dated 1996).
# Tests used:
# [1] = test system: anti-lysozyme antibodies (IgG1, IgG2B, IgG2A, IgM, IgG3); test: Isotyping of anti-lysozyme antibodies; format: in vivo, C57bl/6 mice; details: FIG. 22
# Experimental: Next, the anti-lysozyme antibodies produced by each group of mice were isotyped. Microtitre plates were incubated at 4° C. overnight with 10 μg/ml of lysozyme in about 100 μl of PBS. The plates were then washed two times with PBS and blocked for one hour with 150 μl/well of 10% normal goat serum in PBS at room temperature. The plates were then washed two times with 0.05% Tween-20 in water.
# The mice sera were incubated with the lysozyme coated plates as follows. The serum samples were tested in separate lanes for IgG1, IgG2B, IgG2A, IgM and IgG3. The individual serum samples (10 μl) were diluted with 10% normal goat serum in PBS to make 100 μl, and serial dilutions thereof (1:10) were added to the wells and incubated for 1 hour at room temperature. The wells were then washed four times with 0.05% Tween-20. […] The conjugates were then detected by adding 100 μl per well of 1 mg/ml p-nitrophenylphosphate in 0.1M borate, pH 9.0. After incubation for 6 and 24 hours at room temperature, tile OD410 was read.
# anti-lysozyme IgG = test: Immunization of mice with QA-21-lysozyme conjugate (total anti-lysozyme IgG); format: in vivo, C57bl/6 mice; details: days 0 and 14 intradermal; bled day 21
# Experimental: The QA-21-lysozyme from Example 18 conjugate was used to immunize mice (C57bl/6), with and without added QA-21 as adjuvant. Ten nice (9 weeks of age at the beginning of the immunization) were immunized per group. Immunizations were made intradermally at day 0 and day 14 with a total volume of 0.2 ml (PBS buffer, pH 7). The vaccines contained the following dosages of antigen and adjuvant:
# The mice were bled on day 21 and the anti-lysozyme IgG titers were determined. Microtitre plates (in the alternative, Co-bind® plates from Micromembranes may be used) were incubated at 4° C. overnight with 10 μg/ml of lysozyme in about 100 μl of PBS. The plates were then washed two times with PBS and blocked for one hour with 150 μl/well of 10% normal goat serum at room temperature. The plates were then washed two times with 0.05% Tween-20 in water.
# The mice sera were incubated with the lysozyme coated plates as follows. The individual serum samples (10μl) diluted with 10% normal goat serum in PBS to make 100 μl, as well as serial dilutions thereof (1:10) were added to the wells and incubated for 1 hour at room temperature. The wells were then washed four times with 0.05% Tween-20. […] The conjugate was then detected by tetramethylbenzidine substrate (Bos, E.S. et al., J. Immunoassay 2:187 (1981)). After incubation, the OD450 was read. […]
Substance,Antibody isotypes produced [1],Anti-lysozyme antibody response (immunogenicity) (anti-lysozyme IgG)
"lysozyme: a poorly immunogenic, very hydrophilic protein",only IgM antibodies were produced,poorly immunogenic
"lysozyme-QA-21 conjugate: QA-21 coupled via glucuronic acid to lysozyme, 1:1 molar ratio",–,higher antibody titer than either of the groups receiving free QA-21
